Measured values reported in PMC3185416.
Like-named read-outs stand apart in the source and are kept apart here.

Key:
[1] = biological target: Smad3 MH1 (UniProt Q8BUN5 1-143); assay: EMSA
[2] = biological target: Smad2dE3 MH1 (UniProt Q62432-2 1-153, del79-108); assay: EMSA
[3] = biological target: Smad1 MH1 (UniProt P70340 1-136); assay: EMSA
[4] = biological target: Smad3 MH1 S100K (UniProt Q8BUN5 1-143, S99K); assay: EMSA
[5] = biological target: Smad3 MH1 99HSHH102/HKN (UniProt Q8BUN5 1-97+=HKN+102-143, internal_change); assay: EMSA
[6] = biological target: Smad3 MH1 K33R (UniProt Q8BUN5 1-143, K33R); assay: EMSA
[7] = biological target: T1, Smad4 MH1dN8 (mouse, UniProt P97471 9-140); assay: EMSA
[8] = biological target: Smad4 MH1dN3 (mouse, UniProt P97471 4-140); assay: EMSA
[9] = biological target: Smad4 MH1dN10 (mouse, UniProt P97471 11-140); assay: EMSA
[10] = biological target: Smad4 MH1dN12 (mouse, UniProt P97471 13-140); assay: EMSA
[11] = biological target: T2, Smad4 MH1 (mouse, UniProt P97471 1-140); assay: EMSA
[12] = biological target: Smad4 MH1 105HKN107/HSHH (mouse, UniProt P97471 1-104+=HSHH+108-140, internal_change); assay: EMSA
[13] = biological target: Smad4 MH1 AG/SH (mouse, UniProt P97471 1-140, A85S;G86H); assay: EMSA
[14] = biological target: Smad4 MH1 K106S (mouse, UniProt P97471 1-140, K106S); assay: EMSA
[15] = biological target: Smad4 MH1 R38K (mouse, UniProt P97471 1-140, R38K); assay: EMSA
[16] = biological target: Smad4 MH1;Smad2dE3 MH1 (mouse;mouse?, UniProt P97471;Q62432-2 1-140;1-153, |del79-108); assay: EMSA
[17] = biological target: Smad4 MH1;Smad3 MH1 (mouse;mouse?, UniProt P97471;Q8BUN5 1-140;1-143, |); assay: EMSA
[18] = biological target: Smad4 MH1;Smad1 MH1 (mouse;mouse?, UniProt P97471;P70340 1-140;1-136, |); assay: EMSA
[19] = biological target: T2, Smad4 MH1; assay: EMSA; remark: listed apart in the source
[20] = biological target: T1, Smad4 MH1dN8; assay: crystal structure
[21] = biological target: T2, Smad4 MH1; assay: EMSA; remark: listed apart in the source

Measured: binding result

Smad1 MH1, sequence (P70340 1-136): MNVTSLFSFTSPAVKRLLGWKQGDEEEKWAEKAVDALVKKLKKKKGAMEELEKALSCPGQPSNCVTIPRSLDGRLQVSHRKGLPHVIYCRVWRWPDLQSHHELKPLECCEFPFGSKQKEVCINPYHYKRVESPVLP

B1: palindromic SBE (EMSA) (dsDNA)
DNA 1: TCAGTCTAGACATAC
DNA 2: GTATGTCTAGACTGA
not listed: [19] | [20] | [21]
binds: all other assays above

B2: JunB promoter element (dsDNA)
DNA 1: GACAGTCTGTCTGCC
DNA 2: GGCAGACAGACTGTC
binds: [19]

B3: OPN1 promoter element (dsDNA)
DNA 1: TGGAGACTGTCTGGA
DNA 2: TCCAGACAGTCTCCA
binds: [19]

B4: palindromic SBE 16-bp (crystal) (dsDNA)
DNA 1: TGCAGTCTAGACTGCA
DNA 2: TGCAGTCTAGACTGCA
binds: [20] | [21]
